Two molecules from PMC6801647, “Crystal Structure of Kluyveromyces lactis Glucokinase (KlGlk1)” (International Journal of Molecular Sciences, 2019) can be followed below.

The target of series [1] is Kluyveromyces lactis glucokinase (KlGlk1) (Kluyveromyces lactis) (UniProt Q6CUZ3). As to the kind of experiment: SEC-MALS; size-exclusion chromatography (Superdex 200 Increase 10/300 GL) coupled to right-angle/low-angle light scattering (RALS/LALS) and refractive index, OMNISEC REVEAL; 50 mM Tris pH 7.8, 200 mM NaCl, 5 mM beta-ME.
Substrate in series [2]: Nc1ncnc2c1ncn2[C@@H]1O[C@H](COP(=O)(O)OP(=O)(O)OP(=O)(O)O)[C@@H](O)[C@H]1O
As to the kind of experiment: G6PD-coupled assay, fit over ATP range preceding substrate inhibition. The class given is biochemical, Kluyveromyces lactis. The conditions noted are these: 0.5 mM glucose, 5 mM MgCl2, 50 mM KCl, 250 mM sucrose, 20 mM Tris-HCl pH 7.4, 37 °C, Hill coefficient 1.97 at low ATP, substrate inhibition from 0.25 mM ATP.

In series [1], “Kluyveromyces lactis glucokinase (KlGlk1) (from UniProt Q6CUZ3 49-481) (enzyme)” showed a stoichiometry N of 2.

B1: KlGlk1 (Kluyveromyces lactis NRRL Y-1140) (protein)
chain: SDPKLTKAVDSICDQFIVTKSKISQLTEYFIDCMEKGLEPCESDISQNKGLPMIPTFVTDKPSGQEHGVTMLAADLGGTNFRVCSVELLGNHEFKIEQEKSKIPTFFFQDDHHVTSKDLFQHMALITHQFLTKHHKDVIQDYKWKMGFTFSYPVDQTSLSSGKLIRWTKGFKIGDTVGQDVVQLFQQELNDIGLSNVHVVALTNDTTGTLLARCYASSDAARAINEPVIGCIFGTGTNGCYMEKLENIHKLDPASREELLSQGKTHMCINTEWGSFDNELNHLPTTSYDIKIDQQFSTNPGFHLFEKRVSGLYLGEILRNILLDLEKQELFDLKESVLKNNPFILTTETLSHIEIDTVENDLQDTRDALLKAADLETTFEERVLIQKLVRAISRRAAFLAAVPIAAILIKTNALNQSYHCQVEVGCDGSVVEHYPGFRSMMRHALALSPIGPEGERDVHLRISKDGSGVGAALCALHANY
notes: codon-optimized synthetic gene in pET24d, E. coli BL21 (DE3); N-terminal His-tag removed with TEV protease; dimer in solution (100 kDa apparent); crystal model residues 2-481
As for B1, in series [2], the Km came to 150 µM and the kcat is 400 s⁻¹.
